From the supplement of paper PMC12042874
± gives the uncertainty stated by the source.

Experiment: amyloid nucleation score (Sup35N fusion, yeast selection) (log enrichment); library NNK2; higher = more nucleation; inactive = no reads after selection
Outline: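 Peptides of 20 random codons fused to Sup35N were expressed in psi-negative yeast, induced 24 hours with 100 μM copper sulfate, then grown 7 days at 30°C on medium lacking adenine and uracil. Input and output plasmid inserts were Illumina-sequenced. Nucleation score is the DiMSum log enrichment of output over input reads, centred on the mode score of non-aggregating sequences, excluding sequences with under 100 input reads. Random libraries had three technical output replicates.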

| Substance | amyloid nucleation score |
| --- | --- |
| QFCCVESLGLLALAWLFTGF | 3.62 ± 0.11 |
| QFDMEQFVQCPGTMSSRAVG | 5.04 ± 0.059 |
| QFGNVRLSS | 0.995 ± 0.53 |
| QFRPLDCCLLNFDDSRIYCL | 4.88 ± 0.074 |
| QFVNQRSYKGSLTFFMIRGR | inactive |
| QGGMMWGLLSYCEVLDDSDV | -0.08 ± 1 |
| QGHISHTGLIPMLGGSL | 3.23 ± 0.15 |
| QGLFLLSCPSSN | 2.54 ± 0.11 |
| QGNSETGGNMCYDASCWLYG | -0.064 ± 0.45 |
| QGTRAYQSKALTVSIMLMLV | 3.45 ± 0.096 |
| QGVSVLFGVSATLY | 1.19 ± 0.26 |
| QIELGALNNRCGNRDGSGDW | -0.842 ± 0.35 |
| QIFLIKIGAFVLLLTVQ | -1.34 ± 0.54 |
| QIFSECRTYDFVLPGYMGYY | inactive |
| QIFVR | 0.689 ± 0.55 |
| QINSHNWYDG | 0.369 ± 0.8 |
| QIQVLGWSRKSLMDNKL | inactive |
| QKNTSQCFVLSW | 0.129 ± 0.49 |
| QLICTMNFVAEYNWSALRRN | 4.55 ± 0.12 |
| QLNDWSYMVKFSAV | -0.466 ± 0.64 |
| QLVLKVRLWVDGLYVLEWGW | -0.042 ± 0.49 |
| QLYRCPFCHGGALSYYIRKV | inactive |
| QNLASIDLDYFFSEYYPLLA | -1.37 ± 0.42 |
| QNMNLVHEIGMNRSLVFTFW | -0.167 ± 0.29 |

| Substance | amyloid nucleation score |
| --- | --- |
| QNRKERYVYIFRAEWFPWCG | -1.13 ± 0.76 |
| QNYARL | -1.22 ± 1.1 |
| QPSVL | 0.524 ± 0.81 |
| QQCLINVSSRLLAGVNACSM | 1.22 ± 0.34 |
| QQYSADLLRGYPCMSYVPVG | -0.091 ± 0.26 |
| QRAYVPQTLGVRISVSSRWQ | 3.41 ± 0.096 |
| QRCWRSGTFSGM | -0.107 ± 1 |
| QRSAKLRALPEGIKHKKWLM | -0.108 ± 1.1 |
| QSKFDTFGSFACTYRYFTAN | 0.698 ± 0.8 |
| QSLFFVI | -0.395 ± 0.48 |
| QSLHRGR | -0.311 ± 1.1 |
| QSMICTFFVLCLRSRYW | 4.46 ± 0.068 |
| QSMMSFMSRNVFRFFMGKVT | inactive |
| QSVNCYNVNSDVCNKVYNDL | 0.716 ± 0.42 |
| QVALGNVCNRLYTLMARQAN | -0.283 ± 0.26 |
| QVGFPWFGRQVKDYLLLYKP | 0.22 ± 0.4 |
| QVRELVVLNSMGYPSSW | -0.188 ± 0.41 |
| QWGSMVSCRCYRPPTEGPGW | -0.605 ± 0.76 |
| QWSFPAILRLDTNTSRYYFQ | -0.776 ± 1.1 |
| QYDIVPNVSGNYPNGIFKDR | inactive |
| QYFFNMMLMMDMLSLGGLSY | -0.063 ± 0.45 |
| QYLLIIMFRYYLYCGVQRNY | -0.121 ± 1.1 |
| QYLSALSSAISGGDVYMMSK | 5.15 ± 0.065 |
| QYNKCSMALVFCYCS | 8.26 ± 0.038 |

| Substance | amyloid nucleation score |
| --- | --- |
| QYSTFATNRVFSKAIMHLSG | -0.445 ± 0.36 |
| QYVEFPLMLTET | 0.025 ± 0.79 |
| QYVVNLFYPLYMEKKCWSSI | 6.288 ± 0.039 |
| QYYRN | 1.51 ± 0.58 |
| RADALIVTVARFTPPALVKV | 1.15 ± 0.68 |
| RADPVRVYSCVEVLGRALLG | inactive |
| RAFCVGSTYSSSGGQSLMRV | inactive |
| RAFRKAGMYSYLSG | 3 ± 0.056 |
| RAFYLVTSPDFYFCRILGAT | inactive |
| RAIDRRKVFARYVFWSFSWT | -0.141 ± 0.33 |
| RAQFIQLGDEYYTRC | 0.564 ± 0.49 |
| RASASNR | -0.559 ± 0.36 |
| RASMVDF | 0.108 ± 0.65 |
| RASVFF | inactive |
| RCFCG | 0.226 ± 0.35 |
| RCFGFRVVRFVV | 0.014 ± 0.2 |
| RCFSRNFEECFENAYTWV | -1.07 ± 0.33 |
| RCGFLWCRHFPATSELGCVL | 0.752 ± 0.8 |
| RCLLKLDQV | -0.509 ± 0.4 |
| RCMFDIYFVLVTCEQWCCLV | 0.099 ± 0.49 |
| RCTKA | 0.341 ± 0.21 |
| RCWAAHYVDTWACNSLAVII | 1.19 ± 0.68 |
| RDGKDRAYCGW | 0.483 ± 0.5 |
